From article PMC6857237

Assays:
[1] = target: Olfm1^BMY (olfactomedin-1 natural short isoform BMY, residues 17–153), disulfide-linked tetramer (mouse (Mus musculus)); experiment: SEC-MALS; analytical Superdex200 Increase 10/300, room temperature, SEC buffer (150 mM NaCl, 2 mM CaCl2, 20 mM HEPES pH 7.5), 0.5 mL/min; aldolase as calibration standard
[2] = target: Olfm1^BMY (olfactomedin-1 natural short isoform BMY, residues 17–153), disulfide-linked tetramer (mouse (Mus musculus)); experiment: non-reducing SDS-PAGE; Coomassie-stained SDS-PAGE of purified protein with and without DTT; covalent (disulfide-linked) oligomeric state
[3] = target: Olfm1^BMY (olfactomedin-1 natural short isoform BMY, residues 17–153), disulfide-linked tetramer (mouse (Mus musculus)); experiment: SAXS; ESRF BM29, 0.615 mg/mL in SEC buffer (150 mM NaCl, 2 mM CaCl2, 20 mM HEPES pH 7.5), 277 K; mass from I0

Sequence of Olfm1^BMY (olfactomedin-1 natural short isoform BMY, residues 17–153), disulfide-linked tetramer (natural protein) (O88998 17-485): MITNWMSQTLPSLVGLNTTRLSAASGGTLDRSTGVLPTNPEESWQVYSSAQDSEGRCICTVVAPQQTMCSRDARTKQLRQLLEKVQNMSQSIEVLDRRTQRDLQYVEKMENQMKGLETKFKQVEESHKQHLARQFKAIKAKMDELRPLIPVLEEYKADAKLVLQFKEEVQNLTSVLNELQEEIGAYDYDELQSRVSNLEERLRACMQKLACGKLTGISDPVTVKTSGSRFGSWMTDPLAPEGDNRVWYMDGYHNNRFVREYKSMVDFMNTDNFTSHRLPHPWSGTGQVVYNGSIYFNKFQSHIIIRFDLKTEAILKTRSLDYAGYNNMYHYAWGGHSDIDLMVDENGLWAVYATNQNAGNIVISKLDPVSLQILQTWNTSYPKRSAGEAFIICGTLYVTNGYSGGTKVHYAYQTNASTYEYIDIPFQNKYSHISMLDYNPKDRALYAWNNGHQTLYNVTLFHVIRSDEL

stoichiometry N [1]: 4
stoichiometry N [2]: 4
stoichiometry N [3]: 4
Substance: Olfm1^BMY (olfactomedin-1 natural short isoform BMY, residues 17–153), disulfide-linked tetramer (natural protein)
